Assay results taken from publication PMC2882879 (Biochemistry, 2010).

Legend:
LRP6 (Homo sapiens) = LRP6 (Homo sapiens) (UniProt O75581); test: solid phase enzyme-linked binding assay; conditions: cited from earlier work
[1] = target: human low-density lipoprotein receptor-related protein-5 on stably transfected ldl-7 (LDLR-deficient CHO) … (human, UniProt O75197 32-1615); test: radioligand binding
Sequence of human low-density lipoprotein receptor-related protein-5 on stably transfected ldl-7 (LDLR-deficient CHO) … (O75197 32-1615): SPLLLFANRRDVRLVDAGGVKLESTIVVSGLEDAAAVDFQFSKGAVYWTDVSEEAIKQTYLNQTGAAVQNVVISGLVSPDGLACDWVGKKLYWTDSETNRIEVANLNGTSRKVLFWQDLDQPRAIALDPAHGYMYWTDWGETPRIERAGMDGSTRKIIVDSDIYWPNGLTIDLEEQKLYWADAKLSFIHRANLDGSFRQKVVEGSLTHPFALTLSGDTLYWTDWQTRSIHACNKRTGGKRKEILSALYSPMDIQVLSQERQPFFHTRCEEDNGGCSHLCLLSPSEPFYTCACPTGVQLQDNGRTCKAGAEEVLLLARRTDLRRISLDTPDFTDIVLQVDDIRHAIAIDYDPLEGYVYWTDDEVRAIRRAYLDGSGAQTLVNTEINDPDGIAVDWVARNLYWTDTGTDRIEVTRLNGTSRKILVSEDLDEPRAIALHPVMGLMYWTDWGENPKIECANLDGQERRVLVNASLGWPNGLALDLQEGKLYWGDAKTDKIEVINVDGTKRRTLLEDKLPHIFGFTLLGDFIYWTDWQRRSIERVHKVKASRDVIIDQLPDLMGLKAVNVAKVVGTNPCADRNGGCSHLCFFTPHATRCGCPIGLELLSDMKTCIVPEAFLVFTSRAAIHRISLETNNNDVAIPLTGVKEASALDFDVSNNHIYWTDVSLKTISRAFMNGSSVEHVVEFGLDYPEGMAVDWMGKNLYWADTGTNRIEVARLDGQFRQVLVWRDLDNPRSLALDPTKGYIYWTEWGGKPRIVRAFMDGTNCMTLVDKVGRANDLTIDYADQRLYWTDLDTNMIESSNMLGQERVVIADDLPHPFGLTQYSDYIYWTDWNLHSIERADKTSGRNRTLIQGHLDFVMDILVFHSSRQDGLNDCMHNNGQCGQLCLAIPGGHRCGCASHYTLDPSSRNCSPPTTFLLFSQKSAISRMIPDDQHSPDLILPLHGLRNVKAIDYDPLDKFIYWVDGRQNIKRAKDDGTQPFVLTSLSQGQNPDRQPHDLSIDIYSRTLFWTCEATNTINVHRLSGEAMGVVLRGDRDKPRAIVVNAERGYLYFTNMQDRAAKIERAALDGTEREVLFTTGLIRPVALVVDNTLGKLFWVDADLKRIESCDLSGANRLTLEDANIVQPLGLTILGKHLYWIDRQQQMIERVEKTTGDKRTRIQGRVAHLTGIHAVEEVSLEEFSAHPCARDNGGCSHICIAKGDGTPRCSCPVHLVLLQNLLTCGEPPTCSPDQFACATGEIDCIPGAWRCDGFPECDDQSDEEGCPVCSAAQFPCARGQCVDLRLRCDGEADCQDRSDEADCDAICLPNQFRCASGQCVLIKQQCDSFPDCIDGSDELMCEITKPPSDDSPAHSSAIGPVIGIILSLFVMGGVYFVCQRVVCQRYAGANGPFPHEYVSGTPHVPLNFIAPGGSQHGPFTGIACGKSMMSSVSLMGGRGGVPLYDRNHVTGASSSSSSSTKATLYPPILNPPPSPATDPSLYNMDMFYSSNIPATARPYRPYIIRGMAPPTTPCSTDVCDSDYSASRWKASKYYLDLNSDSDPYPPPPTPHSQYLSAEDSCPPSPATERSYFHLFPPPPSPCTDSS

Sequence of LRP6 (Homo sapiens) (O75581 20-1370): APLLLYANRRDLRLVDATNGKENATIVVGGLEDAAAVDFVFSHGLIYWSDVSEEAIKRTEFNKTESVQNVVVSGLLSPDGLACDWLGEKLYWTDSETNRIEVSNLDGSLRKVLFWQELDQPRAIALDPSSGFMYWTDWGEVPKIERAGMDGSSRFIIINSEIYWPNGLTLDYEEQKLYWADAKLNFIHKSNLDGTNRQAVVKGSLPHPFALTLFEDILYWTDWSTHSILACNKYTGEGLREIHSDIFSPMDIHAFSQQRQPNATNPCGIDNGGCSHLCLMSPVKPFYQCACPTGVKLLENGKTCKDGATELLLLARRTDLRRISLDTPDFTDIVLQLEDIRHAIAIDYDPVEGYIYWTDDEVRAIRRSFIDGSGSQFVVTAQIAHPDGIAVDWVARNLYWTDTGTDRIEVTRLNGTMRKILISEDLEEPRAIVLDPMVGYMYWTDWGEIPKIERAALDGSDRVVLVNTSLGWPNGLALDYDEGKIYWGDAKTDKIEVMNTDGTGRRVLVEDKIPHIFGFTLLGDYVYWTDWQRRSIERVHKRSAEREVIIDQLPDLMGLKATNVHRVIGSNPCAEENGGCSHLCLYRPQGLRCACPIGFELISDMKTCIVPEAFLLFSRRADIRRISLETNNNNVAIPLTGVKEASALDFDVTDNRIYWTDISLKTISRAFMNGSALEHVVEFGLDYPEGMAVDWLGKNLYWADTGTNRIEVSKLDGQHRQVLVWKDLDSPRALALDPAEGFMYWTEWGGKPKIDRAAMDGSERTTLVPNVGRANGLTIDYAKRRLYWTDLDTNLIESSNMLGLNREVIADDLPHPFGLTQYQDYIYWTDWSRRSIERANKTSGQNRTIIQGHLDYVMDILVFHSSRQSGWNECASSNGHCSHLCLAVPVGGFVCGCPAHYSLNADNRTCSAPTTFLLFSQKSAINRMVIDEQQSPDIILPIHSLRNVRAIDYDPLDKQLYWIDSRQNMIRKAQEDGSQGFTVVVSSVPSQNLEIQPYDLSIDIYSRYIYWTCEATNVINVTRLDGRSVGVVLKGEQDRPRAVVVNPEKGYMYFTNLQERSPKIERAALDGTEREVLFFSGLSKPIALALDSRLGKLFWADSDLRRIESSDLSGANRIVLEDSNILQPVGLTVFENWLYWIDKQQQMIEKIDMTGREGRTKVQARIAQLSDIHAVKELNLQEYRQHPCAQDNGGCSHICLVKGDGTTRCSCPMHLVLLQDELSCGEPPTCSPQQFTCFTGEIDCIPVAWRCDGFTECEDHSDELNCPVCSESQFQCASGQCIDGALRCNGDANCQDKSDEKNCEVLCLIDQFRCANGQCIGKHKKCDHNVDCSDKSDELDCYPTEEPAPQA

Rspo1 (from UniProt Q2MKA7)
Kd (LRP6 (Homo sapiens)): 1.2 nM

B1: recombinant mouse Mesd protein (natural protein, UniProt Q9ERE7 30-224, looked up)
chain: ADTPGEATPPPRKKKDIRDYNDADMARLLEQWEKDDDIEEGDLPEHKRPSAPIDFSKLDPGKPESILKMTKKGKTLMMFVTVSGNPTEKETEEITSLWQGSLFNANYDVQRFIVGSDRAIFMLRDGSYAWEIKDFLVSQDRCAEVTLEGQMYPGKGGGSKEKNKTKPEKAKKKEGDPKPRASKEDNRAGSRREDL
modifications: 125I-iodinated (IODO-GEN method) where used as radioligand; unlabelled where used as competitor
Kd [1]: 3.3 nM
